Laboratory results as given in paper PMC6034166.

Target: ethylenediamine-N,N′-disuccinic acid lyase (EDDS lyase) from Chelativorans sp. BNC1 (Chelativorans sp. BNC1)
Test: SEC + other: dynamic light scattering

stoichiometry N: 4
Substance: ethylenediamine-N,N′-disuccinic acid lyase (EDDS lyase) from Chelativorans sp. BNC1 (enzyme)
